The results in this text go back to patent US20120321619A1 (Bayer, published 2012).

One test addresses T1, hC4.4a domain S2-Fc-his6 (human, UniProt O95274 138-223).
T1 construct: C-terminal human IgG1 Fc-6×HisTag fusion from HEK293 6E cells; also called S2 Fc-6×HisTag; domain S2 of C4.4a
The experiment in a line: western blot of purified S2-Fc-6×HisTag fusion. The method, then: The SDS gel was then blotted to a iblot gel transfer membrane (Invitrogen IB3010-02) using an iBlot device (Invitrogen). The membrane was blocked in DPBS pH 7.4+4% milk powder+0.1% Tween 20 for 16 h at 4° C., followed by three washing steps for 5 min at 20° C. in DPBS pH 7.4+0.1% Tween 20. M31-B01 (5.76 mg/ml) or M20-D02 S-A (3.49 mg/ml) were applied in dilutions of 1/5000 and 1/2000 respectively and incubated for 1.5 h at 20° C., followed by 2× washes in DPBS pH 7.4+0.1% Tween 20. The second antibody (alk. Phosphatase. Conjugate Goat anti human IgG, Fab specific; 109-055-097 Jackson ImmunoResearch) was incubated at a dilution of 1/1000 for 1.5 h at 20° C. Followed by 3 washing steps for 5 min at 20° C. in DPBS pH 7.4+0.1% Tween 20. Staining was performed with Sigma Fast BCIP/NBT/1 tablet in 10 ml water at 20° C. till the bands became visible. Staining reaction was stopped by washing with water.

Test [1] deals with T2, recombinant soluble human C4.4a (human, UniProt O95274 31-308).
T2 construct: recombinant, soluble, purified protein; also called hC4.4a; full length C4.4a
T2 sequence: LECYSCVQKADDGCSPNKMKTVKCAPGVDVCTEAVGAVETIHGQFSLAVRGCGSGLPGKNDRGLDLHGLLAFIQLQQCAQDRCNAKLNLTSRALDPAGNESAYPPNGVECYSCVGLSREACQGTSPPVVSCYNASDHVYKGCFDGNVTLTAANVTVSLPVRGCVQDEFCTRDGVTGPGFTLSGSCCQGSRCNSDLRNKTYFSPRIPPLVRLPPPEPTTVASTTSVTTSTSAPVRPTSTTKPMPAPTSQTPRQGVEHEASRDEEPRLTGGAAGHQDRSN
Kind of test: SPR (Biacore T100), IgG1 captured by anti-human Fc, soluble C4.4a injected, 1:1 fit. The method, then: (§1) Binding affinities of anti C4.4 antibodies were determined by surface plasmon resonance analysis on a Biacore T100 instrument (GE Healthcare Biacore, Inc.). Antibodies were immobilized onto a CM5 sensor chip through an indirect capturing reagent, anti-human IgG Fc. Reagents from the “Human Antibody Capture Kit” (BR-1008-39, GE Healthcare Biacore, Inc.) were used as described by the manufacturer. Approximately 5000 RU monoclonal mouse anti-human IgG (Fc) antibody were immobilized per cell. Anti C4.4 antibodies were injected at a concentration of 5 μg/ml at 10 μl/min for 10 sec to reach a capturing level of approximately 200 to 600 RU. Various concentrations (400 nM, 200 nM, 100 nM, 50 nM, 25 nM, 12.5 nM, 6.25 nM, and 3.12 nM) in HEPES-EP buffer (GE Healthcare Biacore, Inc.) of human or murine C4.4a were injected over immobilized anti C4.4a antibodies at a flow rate of 60 μl/min for 3 minutes and the dissociation was allowed for 10 minutes. Sensograms were generated after in-line reference cell correction followed by buffer sample subtraction. The dissociation equilibrium constant (KD) was calculated based on the ratio of association (kₒₙ) and dissociation rated (koff) constants, obtained by fitting sensograms with a first order 1:1 binding model using Biavaluation Software (version 4.0).

In test [2] the target is T3, recombinant soluble murine C4.4a (mouse, UniProt Q91YK8 33-343, limits assumed).
T3 construct: also called mouse C4.4a; mC4.4a
T3 sequence (looked up): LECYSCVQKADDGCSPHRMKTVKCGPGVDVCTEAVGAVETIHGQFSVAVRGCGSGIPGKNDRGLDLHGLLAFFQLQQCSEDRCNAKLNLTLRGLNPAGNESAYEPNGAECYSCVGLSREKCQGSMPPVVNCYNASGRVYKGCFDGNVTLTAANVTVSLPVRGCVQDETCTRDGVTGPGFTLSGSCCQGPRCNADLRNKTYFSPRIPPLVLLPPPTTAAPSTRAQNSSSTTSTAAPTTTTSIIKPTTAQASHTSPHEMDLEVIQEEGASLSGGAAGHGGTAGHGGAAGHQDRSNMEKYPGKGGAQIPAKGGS
Described as above. The method, then: as §1

B1: M31-B01 (antibody, human IgG1, V domains shown)
VH: EVQLLESGGGLVQPGGSLRLSCAASGFTFSNAWMSWVRQAPGKGLEWVSYISSSGSTIYYADSVKGRFTISRDNSKNTLYLQMNSLRAEDTAVYYCAREGLWAFDYWGQGTLVTVTS
VL: QSVLTQPPSASGTPGQRVTISCTGSSSNIGAGYVVHWYQQLPGTAPKLLIYDNNKRPSGVPDRFSGSKSGTSASLAISGLRSEDEADYYCAAWDDRLNGPVFGGGTKLTVLG
notes: tested as human IgG1
As for B1, the binding result with hC4.4a domain S2-Fc-his6 was “no binding”. The Kd was determined as 70 nM in test [1] and 130 nM in test [2].

B2: M20-D02 S-A (antibody, human IgG1, V domains shown)
VH: EVQLLESGGGLVQPGGSLRLSCAASGFTFSDYQMTWIRQTPGKGLEWVSGVSWNGARTHYADSVKGRFTISRDNSKNTLYLQMNSLRAEDTAVYYCAKGDYLVYSAYYFDSWGQGTLVTVTS
VL: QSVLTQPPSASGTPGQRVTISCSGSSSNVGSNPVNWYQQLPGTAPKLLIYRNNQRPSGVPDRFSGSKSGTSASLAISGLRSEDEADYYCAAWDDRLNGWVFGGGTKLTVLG
notes: tested as human IgG1
As to B2, in the test with hC4.4a domain S2-Fc-his6, the binding result is on record as “no binding”. For the same molecule, the values for the Kd in test [1] and in test [2] were 220 nM and 180 nM, respectively.
